From patent publication US20240376221A1 (Genmab, published 2024)
Changes are numbered by the printed parent chain. Names and notes keep the numbering of the source. Like-named read-outs stand apart in the source and are kept apart here.

T1: cynomolgus monkey OX40, cell surface-expressed (cynomolgus monkey, UniProt P43489 29-277 (human entry))
T1 construct: full-length, on transfected HEK293F cells
T1 chain: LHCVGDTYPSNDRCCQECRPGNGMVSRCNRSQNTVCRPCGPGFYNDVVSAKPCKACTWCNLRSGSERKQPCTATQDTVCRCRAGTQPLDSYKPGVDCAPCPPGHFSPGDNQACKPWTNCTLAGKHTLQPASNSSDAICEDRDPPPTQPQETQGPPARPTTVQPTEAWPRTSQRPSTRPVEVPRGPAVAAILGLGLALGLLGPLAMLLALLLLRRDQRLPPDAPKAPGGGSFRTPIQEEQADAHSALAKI

T2: human OX40 with mouse CRD2 (human with mouse CRD2, UniProt P43489 29-277)
T2 construct: on transfected ExpiCHO-S cells; also called Shuffle 2; OX40-CRD2mm
T2 chain: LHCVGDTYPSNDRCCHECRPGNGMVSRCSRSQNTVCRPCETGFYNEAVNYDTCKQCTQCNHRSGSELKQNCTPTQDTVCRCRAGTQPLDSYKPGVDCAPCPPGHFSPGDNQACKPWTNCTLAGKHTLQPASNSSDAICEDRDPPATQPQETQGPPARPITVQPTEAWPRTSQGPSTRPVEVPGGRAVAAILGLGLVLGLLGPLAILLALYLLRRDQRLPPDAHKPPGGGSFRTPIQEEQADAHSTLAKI

T3: human OX40 with mouse CRD4 (human with mouse CRD4, UniProt P43489 29-277)
T3 construct: on transfected ExpiCHO-S cells; also called Shuffle 4; OX40-CRD4mm
T3 chain: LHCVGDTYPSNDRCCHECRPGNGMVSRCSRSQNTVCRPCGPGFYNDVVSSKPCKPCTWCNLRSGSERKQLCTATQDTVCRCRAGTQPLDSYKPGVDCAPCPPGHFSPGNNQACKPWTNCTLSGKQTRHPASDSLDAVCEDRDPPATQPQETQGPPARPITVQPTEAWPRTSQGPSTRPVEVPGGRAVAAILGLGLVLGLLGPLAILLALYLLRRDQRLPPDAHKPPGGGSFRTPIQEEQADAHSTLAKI

T4: human OX40, cell surface-expressed (human, UniProt P43489 29-277)
T4 construct: also called CD134; TNFRSF4
T4 sequence: T3 chain with N109D, S122A, Q125H, R127L, H128Q, D132N, L134S, V137I

T5: human OX40 with mouse CRD3 (human with mouse CRD3, UniProt P43489 29-277)
T5 construct: on transfected ExpiCHO-S cells; also called Shuffle 3; OX40-CRD3mm
T5 chain: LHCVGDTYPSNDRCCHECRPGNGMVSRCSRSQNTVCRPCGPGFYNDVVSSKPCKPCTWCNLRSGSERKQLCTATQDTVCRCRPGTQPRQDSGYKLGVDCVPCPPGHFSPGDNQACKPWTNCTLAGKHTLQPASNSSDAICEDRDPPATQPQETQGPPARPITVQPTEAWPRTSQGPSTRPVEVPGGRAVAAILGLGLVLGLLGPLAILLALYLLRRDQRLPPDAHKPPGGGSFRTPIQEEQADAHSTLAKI

T6: human OX40 with mouse CRD1 (human with mouse CRD1, UniProt P43489 29-277)
T6 construct: on transfected ExpiCHO-S cells; also called Shuffle 1; OX40-CRD1mm
T6 chain: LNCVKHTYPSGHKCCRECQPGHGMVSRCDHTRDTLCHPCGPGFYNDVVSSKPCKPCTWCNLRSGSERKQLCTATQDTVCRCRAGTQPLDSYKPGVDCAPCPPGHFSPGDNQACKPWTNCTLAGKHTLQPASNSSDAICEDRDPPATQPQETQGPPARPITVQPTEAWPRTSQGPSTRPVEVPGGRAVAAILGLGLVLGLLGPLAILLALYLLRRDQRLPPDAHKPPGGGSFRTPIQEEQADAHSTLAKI

T7: His-tagged human recombinant FcγRIIa 167-His (human, UniProt P12318 34-218)
T7 construct: bought; also called FcγRIIa[H]; not shown: His-tag
T7 sequence (looked up): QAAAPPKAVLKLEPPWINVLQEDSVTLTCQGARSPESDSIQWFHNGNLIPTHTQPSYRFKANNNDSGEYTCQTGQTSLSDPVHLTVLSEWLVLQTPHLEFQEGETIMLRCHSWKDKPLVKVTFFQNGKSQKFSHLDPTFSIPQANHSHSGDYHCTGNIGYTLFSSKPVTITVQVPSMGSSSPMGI

T8: His-tagged human recombinant FcγRIIb (human, UniProt P31994 43-217)
T8 construct: bought; also called FcγRII2b [sic]; not shown: His-tag
T8 sequence (looked up): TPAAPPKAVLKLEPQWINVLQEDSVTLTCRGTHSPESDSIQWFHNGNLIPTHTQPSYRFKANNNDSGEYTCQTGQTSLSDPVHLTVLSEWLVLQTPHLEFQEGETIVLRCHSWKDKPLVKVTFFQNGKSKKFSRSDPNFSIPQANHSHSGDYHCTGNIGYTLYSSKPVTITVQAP

T9: His-tagged human recombinant FcγRIIa 167-Arg (human, UniProt P12318 34-218)
T9 construct: bought; also called FcγRIIa[R]; not shown: His-tag
T9 sequence (looked up): T7 sequence (looked up) with H134R

B1: IgG1-CD134-012-RR-K409R (antibody)
heavy: QSLEESGGRLVTPGTPLTLICTVSGIDLSSGAMGWVRQAPGKGLEYIGYIYTGSGTTSYASWVNGRFTISMTSTTVDLKITSPTTEDTATYFCARDAASSYWGHFTLWGQGTLVTVSSASTKGPSVFPLAPSSKSTSGGTAALGCLVKDYFPEPVTVSWNSGALTSGVHTFPAVLQSSGLYSLSSVVTVPSSSLGTQTYICNVNHKPSNTKVDKRVEPKSCDKTHTCPPCPAPELLGGPSVFLFPPKPKDTLMISRTPEVTCVVVDVSHEDPEVKFNWYVDGVEVHNAKTKPREEQYNSTYRVVSVLTVLHQDWLNGKEYKCKVSNKALRAPIEKTISKAKGQPRRPQVYTLPPSREEMTKNQVSLTCLVKGFYPSDIAVEWESNGQPENNYKTTPPVLDSDGSFFLYSRLTVDKSRWQQGNVFSCSVMHEALHNHYTQKSLSLSPG
light: DIVMTQTPASVEAAVGGTVTIKCQASENIYSSLAWYQQKPGQPPKLLIYRTSTLASGVPSRFKGSGSGTQFTLTISDLESDDAATYYCQSYYHNSGGGYDYGFGGGTEVVAKRTVAAPSVFIFPPSDEQLKSGTASVVCLLNNFYPREAKVQWKVDNALQSGNSQESVTEQDSKDSTYSLSSTLTLSKADYEKHKVYACEVTHQGLSSPVTKSFNRGEC
notes: chimeric 012; also called IgG1-CD134-012-P329R-E345R-K409R
B2: IgG1-CD134-007-RR (antibody)
heavy: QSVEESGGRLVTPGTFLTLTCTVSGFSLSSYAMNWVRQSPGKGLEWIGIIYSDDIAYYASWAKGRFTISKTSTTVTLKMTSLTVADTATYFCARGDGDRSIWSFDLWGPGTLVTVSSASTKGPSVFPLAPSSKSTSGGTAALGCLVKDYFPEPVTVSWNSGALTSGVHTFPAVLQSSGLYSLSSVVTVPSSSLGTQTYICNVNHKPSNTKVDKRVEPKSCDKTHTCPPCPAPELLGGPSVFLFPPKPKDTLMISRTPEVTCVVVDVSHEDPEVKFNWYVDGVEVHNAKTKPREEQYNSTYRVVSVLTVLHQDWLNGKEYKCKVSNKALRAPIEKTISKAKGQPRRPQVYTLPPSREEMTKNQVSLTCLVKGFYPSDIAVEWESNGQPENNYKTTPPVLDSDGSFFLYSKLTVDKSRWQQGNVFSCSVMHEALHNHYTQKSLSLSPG
light: AQVLTQTPSPVSAAVGGTVTISCQSSESVWNNNWLAWYQQKPGQPPNLLIYEASTLASGVSSRFKGSGSGTQFTLTVSEVQSDDAATYYCQGGYYDSSPIWTFGGGTEVVVKRTVAAPSVFIFPPSDEQLKSGTASVVCLLNNFYPREAKVQWKVDNALQSGNSQESVTEQDSKDSTYSLSSTLTLSKADYEKHKVYACEVTHQGLSSPVTKSFNRGEC
notes: chimeric 007 with RR constant region; also called IgG1-CD134-007-P329R-E345R
B3: IgG1-b12 (antibody)
heavy: not shown
VL: EIVLTQSPGTLSLSPGERATFSCRSSHSIRSRRVAWYQHKPGQAPRLVIHGVSNRASGISDRFSGSGSGTDFTLTITRVEPEDFALYYCQVYGASSYTFGQGTKLERK
notes: wild-type Fc domain; also called anti-HIV gp120 antibody IgG1-b12

Assays:
[1] = target: T1, cynomolgus monkey OX40, cell …; assay: flow cytometry, HEK293F cells with cynomolgus monkey OX40
Description: Transfected cells were seeded in 96-well plates (30,000 cells/well; ThermoFisher, cat. no. 163320) for sequential incubations, with washing steps in between using fluorescence-activated cell sorting (FACS) buffer 1 (phosphate buffered saline [PBS; Lonza, cat. no. BE17-517Q] supplemented with 0.1% bovine serum albumin [BSA; Roche, cat. no. 10735086001] and 0.02% sodium azide [NaN₃; Bio-World, cat. no. 41920044-3]) supplemented with 2 mM ethylenediaminetetraacetic acid (EDTA; Sigma-Aldrich, cat. no. 03690). […] Cells were then washed using EDTA-supplemented FACS buffer 1, resuspended in a 30 μL solution of viability marker ToPro-3 (Invitrogen, cat. no. T3605, diluted 1:10,000) in EDTA-supplemented FACS buffer 1, and subsequently analyzed on an iQue® 3 flow cytometer (Satorius). Data were analyzed using FlowJo software and were visualized using GraphPad Prism.

[2] = target: T2, human OX40 with mouse CRD2; assay: flow cytometry, ExpiCHO-S cells with human OX40 carrying mouse CRD2
Description: (§1) The four shuffle constructs, as well as wild-type human and mouse OX40 were transiently expressed on ExpiCHO-S cells using the ExpiFectamine™ CHO Transfection Kit (ThermoFisher, cat. no. A29131), according to the manufacturer's protocol. […] Next, cells were washed twice in FACS buffer 1, were resuspended in a 30 μL solution of viability marker ToPro-3 (Invitrogen, cat. no. T3605, diluted 1:10,000) in FACS buffer 1 supplemented with 2 mM EDTA, and were analyzed on an iQue Screener Plus (Intellicyt Corporation, USA). Data were analyzed using FlowJo software and visualized using GraphPad Prism.

[3] = target: T3, human OX40 with mouse CRD4; assay: flow cytometry, ExpiCHO-S cells with human OX40 carrying mouse CRD4
Description: (§2) Data shown are the geometric mean of the fluorescence intensity (gMFI) from one representative experiment out of two experiments performed.
as §1

[4] = target: T4, human OX40, cell surface-expressed; assay: flow cytometry, ExpiCHO-S cells with human OX40
Description: as §1

[5] = target: T5, human OX40 with mouse CRD3; assay: flow cytometry, ExpiCHO-S cells with human OX40 carrying mouse CRD3
Description: as §1

[6] = target: T6, human OX40 with mouse CRD1; assay: flow cytometry, ExpiCHO-S cells with human OX40 carrying mouse CRD1
Description: as §2, §1

[7] = target: T10, His-tagged human recombinant FcγRIa (human, UniProt P12314 16-288); assay: SPR, His-tagged FcγRIa captured on an anti-His chip, antibody injected
T10 construct: bought; also called FcγRIa (SPR); not shown: His-tag
Description: (§3) Biacore Series S Sensor Chips CM5 (Cytiva, cat. no. 29104988) were covalently coated with anti-His antibody using amine-coupling and His capture kits (Cytiva, cat. no. BR100050 and cat. no. 29234602) according to the manufacturer's instructions. […] After three start-up cycles of HBS-EP+ buffer, antibody samples were injected for 12 cycles per sample to generate binding curves using antibody concentration ranges of 0 to 3,000 nM for FcγRIa and 0 to 10,000 nM for the other FcγRs. […] Dissociation from the anti-His-coated surface was performed by regeneration of the surface using 10 mM Glycine-HCl pH 1.5 (Cytiva, cat. no. BR100354).

[8] = target: T7, His-tagged human recombinant FcγRIIa …; assay: SPR, His-tagged FcγRIIa[H] captured on an anti-His chip, antibody injected
Description: as §3

[9] = target: T11, His-tagged human recombinant FcγRIIIa 176-Phe (human, UniProt P08637 17-208); assay: SPR, His-tagged FcγRIIIa[F] captured on an anti-His chip, antibody injected
T11 construct: bought; also called FcγRIIIa[F]; not shown: His-tag
Description: as §3

[10] = target: T8, His-tagged human recombinant FcγRIIb; assay: SPR, His-tagged FcγRIIb captured on an anti-His chip, antibody injected
Description: as §3

[11] = target: T12, His-tagged human recombinant FcγRIIIa 176-Val (human, UniProt P08637 17-208); assay: SPR, His-tagged FcγRIIIa[V] captured on an anti-His chip, antibody injected
T12 construct: bought; also called FcγRIIIa[V]; not shown: His-tag
Description: as §3

[12] = target: T9, His-tagged human recombinant FcγRIIa …; assay: SPR, His-tagged FcγRIIa[R] captured on an anti-His chip, antibody injected
Description: as §3

[13] = target: T10, His-tagged human recombinant FcγRIa; assay: SPR, His-tagged FcγRIa captured on an anti-His chip, antibody injected; remark: listed apart in the source
Description: as §3

T10 sequence (P12314 16-288 limits assumed): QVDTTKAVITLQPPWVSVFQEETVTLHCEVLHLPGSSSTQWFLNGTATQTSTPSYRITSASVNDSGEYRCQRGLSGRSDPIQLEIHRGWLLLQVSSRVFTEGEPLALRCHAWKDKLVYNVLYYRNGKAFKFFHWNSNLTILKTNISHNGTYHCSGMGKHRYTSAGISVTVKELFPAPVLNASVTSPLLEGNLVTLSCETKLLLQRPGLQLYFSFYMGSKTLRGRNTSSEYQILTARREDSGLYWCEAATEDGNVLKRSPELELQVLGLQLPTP
T11 sequence (P08637 17-208 limits assumed): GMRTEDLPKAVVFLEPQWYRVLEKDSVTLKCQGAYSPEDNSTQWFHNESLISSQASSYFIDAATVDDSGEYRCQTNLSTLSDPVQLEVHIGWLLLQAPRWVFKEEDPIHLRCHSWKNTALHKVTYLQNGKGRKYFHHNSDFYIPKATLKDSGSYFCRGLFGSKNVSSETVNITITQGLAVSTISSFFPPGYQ
T12 sequence (P08637 17-208 F176V limits assumed): as the sequence (P08637 17-208 limits assumed) above, with F160V counted along it

Binder	EC50 (read off the curve) [1] [µg/mL]	EC50 (read off the curve) [2] [µg/mL]	EC50 (read off the curve) [3] [µg/mL]	EC50 (read off the curve) [4] [µg/mL]	EC50 (read off the curve) [5] [µg/mL]	EC50 (read off the curve) [6] [µg/mL]	EC50 (read off the curve) [7] [nM]	binding result [8]	binding result [9]	binding result [10]	binding result [11]	binding result [12]	EC50 (read off the curve) [13] [nM]
B1	~0.05	~0.1	~0.1	~0.06	~0.1								
B2			~0.009	~0.005	~0.02	~0.005							
B3							~20	binds	binds	binds	binds	binds	~30
